# B1: ClyS: chimeric lysin: Twort lysin endopeptidase domain attached to the phiNM3 CWT domain, 280 amino acid residues (protein)
# chain: METLKQAESYIKSKVNTGTDFDGLYGYQCMDLAVDYIYHVTDGKIRMWGNAKDAINNSFGGTATVYKNYPAFRPKYGDVVVWTTGNFATYGHIAIVTNPDPYGDLQYVTVLEQNWNGNGIYKTELATIRTHDYTGITHFIRPNFATESSVKKKDTKKKPKPSNRDGLNKDKIVYDRTNINYNMVLQGKSASKITVGSKAPYNLKWSKGAYFNAKIDGLGATSATRYGDNRTNYRFDVGQAVYAPGTLIYVFEIIDGWCRIYWNNHNEWIWHERLIVKEVF
# modifications: Chimeric of Staphylococcus aureus bacteriophage Twort domain and Staphylococcus aureus phage phiNM3 CWT domain
# notes: chimeric lysin: Twort lysin endopeptidase domain attached to the phiNM3 CWT domain, 280 amino acid residues
# Key:
# [1] = system: S. epidermidis including the biofilm-forming strain RP62A; test: Muralytic activity on bacterial strains, Set II; assay type: cell-based; settings: 50 U of ClyS, 15 minutes
# Description: (§1) Muralytic activity of ClyS was tested on a number of bacterial strains representing a variety of species which were divided into sets (Table 1 and FIG. 10). Set I consisted of S. aureus strains including methicillin-sensitive S. aureus (MSSA) and MRSA. ClyS was active against MSSA and MRSA although differences were observed between S. aureus strains. Set II consisted of different species of staphylococci including S. epidermidis, S. simulans and S. sciuri. […] Set III consisted of a mix of Gram-positive and Gram-negative bacteria including representatives of group A, B, C and E streptococci, oral streptococcal species including S. gordonli, and S. salivarius, as well as S. uberis, Bacillus cereus, Pseudomonas aeruginosa and E. coli.
# (§2) The viability assay of ClyS was tested as previously described (Nelson et al, 2001). Briefly, log phase cultures of S. aureus strain 8325-4 were resuspended in PB to OD600 of 0.8-1.0. 50 U of ClyS or the corresponding volume of PB was added to bacterial cells and aliquots were removed, serially diluted, and plated at 1, 5, 10, 30, and 60 minutes to assess the viability of the treated and control cells. All experiments were performed in triplicate. The activity of ClyS on various bacterial strains was tested as described previously (Schuch et al, 2002). Briefly, log phase bacterial cells were treated with 50 U of ClyS at 37° C. for 15 minutes. The samples were serially diluted and plated. Control experiments with the addition of phosphate buffer (pH 7.0) were performed under the same conditions.
# S. sciuri = test: Muralytic activity on bacterial strains, Set II; assay type: cell-based; settings: 50 U of ClyS, 15 minutes
# Description: as §1, §2
# S. simulans = test: Muralytic activity on bacterial strains, Set II; assay type: cell-based; settings: 50 U of ClyS, 15 minutes
# Description: as §1, §2
# staphylococci = test: Lytic activity of chimera lysates against staphylococci; assay type: cell-based; settings: qualitative
# [2] = system: group A, B, C and E streptococci, S. gordonli, S. salivarius, S. uberis, Bacillus cereus, Pseudomonas aeruginosa and E. coli; test: Muralytic activity on bacterial strains, Set III; assay type: cell-based, mix of Gram-positive and Gram-negative bacteria; settings: 50 U of ClyS, 15 minutes
# Description: as §1
# as §2, with “The samples were serially diluted and plated. Control experiments with the addition of phosphate buffer (pH 7.0) were performed under the same conditions.” left out
# S. aureus strain 8325-4 = test: ClyS activity as a function of pH and salt concentration; assay type: cell-based, Staphylococcus aureus; settings: 50 U, 15 minutes
# Description: The effect of pH on ClyS activity was determined as previously described using the universal buffer system pH 4-10 (Yoong et al). Briefly, log phase 8325-4 cells were resuspended in the universal buffer system and incubated with 50 U of ClyS for 15 minutes. The final pH of each reaction was checked by pH paper. The samples were serially diluted and plated. In controls, PB replaced ClyS.
# Similarly the effect of salt concentration on the lytic activity of ClyS was determined by incubating 50 U of ClyS with log phase 8325-4 cells in PB containing NaCl at a final concentration of 25-500 mM for 15 minutes. The samples were serially diluted and plated to determine the viability counts.
# MRSA (191-SM^R) = test: In vivo nasal decolonization of MRSA; design: species or system C57BL/6J mice; settings: three hourly intranasal doses of ClyS (960 μg) 24 h post-infection; 1 h after last treatment; p<0.001 vs buffer
# Source text: Carriage of both MSSA and MRSA in the human anterior nares is the major reservoir for S. aureus infection. Studies have shown that roughly 80% of the population could be nasally colonized by S. aureus, and that colonization can be an increased risk factor for developing other more serious S. aureus infections (Kluytmans, J., A. van Belkum. 1997. Nasal carriage of Staphylococcus aureus: epidemiology, underlying mechanisms, and associated risks. Clin Microbiol Rev 10(3): 505-20). Elimination of nasal carriage in the community or in the hospital setting thus could possibly reduce the risk of infection and slow the spread of drug resistant S. aureus (Kluytmans et al. (1997)). To study the potential of ClyS to reduce MRSA colonization of the nasal mucosa, C57BL/6J mice were intranasally inoculated with ˜2×10^7 of a spontaneously streptomycin resistant strain of MRSA (191-SM^R). Twenty-four hours post-infection mice were administered three doses hourly of either phosphate buffered saline (control) or ClyS (960 μg) into the nasal passages. One hour after the last treatment, mice were sacrificed and bacteria colonies were enumerated on Spectra MRSA agar, (a selective chromogenic medium developed to diagnostically detect MRSA nasal colonization) and Columbia blood agar. […]
# MRSA strain MW2 = test: Systemic MRSA infection model, survival; assay type: in vivo, FVB/NJ mice
# Description: In order to assess whether ClyS treatment could prevent death resulting from systemic MRSA infections, 4 week old FVB/NJ mice were intraperitoneally injected with ˜5×10^5 CFU of the community-acquired MRSA strain MW2 in 5% mucin. Preliminary experiments determined that 5×10^5 CFU was 10× the LD100 dose for a twenty-four hour period. Furthermore, within 3 hours of IP injection the MRSA infection was systemic. i.e., MRSA were recovered in high numbers from heart, liver, spleen, and kidney (data not shown). Treatment occurred three hours post-infection, with either 20 mM phosphate buffer or 1 mg of ClyS in 20 mM phosphate buffer injected IP (intraperitoneally). Mice were then monitored for survival over ten days. The results from three independent experiments were combined (ClyS treatment, n=16; buffer treatment, n=14) and the mice survival data plotted with a Kaplan Meier Survival curve (FIG. 12), Within twenty-four hours all of the control mice died of bacterial sepsis, while only 2/16 of ClyS treated mice died at forty-eight hours, and the remaining mice (14/16, 88%) survived over the course of the experiments (FIG. 12).
# To determine if this effect could be seen in our systemic MRSA infection model, FVB/NJ mice were intraperitoneally injected with ˜5×10^5 CFUs of the MRSA strain MW2 as above. Three hours post infection mice were treated in parallel, with a lower IP dose of 130 μg/mouse of ClyS combined with different concentrations of oxacillin (10-100 μg/mouse) or buffer alone controls. Preliminary experiments determined that an ED30 dose of ClyS (130 μg/mouse) had minimal efficacy to evaluate the effect of combinatorial treatment with oxacillin (data not shown). Mice were monitored for survival for 10 days and the results of 5 independent experiments were combined and plotted in a Kaplan Meier Survival curve (FIG. 14).
molecule,measurement,setting,value
B1,muralytic activity against S. epidermidis,[1],active
same,muralytic activity against S. sciuri,S. sciuri,active
same,muralytic activity against S. simulans,S. simulans,active
same,lytic activity against staphylococci,staphylococci,active
same,muralytic activity against Set III organisms,[2],no activity
same,activity at physiological pH,S. aureus strain 8325-4,partial yet significant activity
same,activity at physiological salt concentrations,S. aureus strain 8325-4,functioned well
same,NaCl concentration above which activity deteriorated,S. aureus strain 8325-4; 25-500 mM NaCl in PB,above 400 mM
same,mean CFU on the nasal mucosa,MRSA (191-SM^R),1198 CFU/cavity
same,survival,"MRSA strain MW2; 130 μg/mouse of ClyS IP alone, 10 days",30%
same,mice died at forty-eight hours,MRSA strain MW2; 1 mg of ClyS IP three hours post-infection,2/16
same,survival over the course of the experiments,"MRSA strain MW2; 1 mg of ClyS IP three hours post-infection, ten days",88%
same,ED30 dose,"MRSA strain MW2; IP, preliminary experiments",130 μg/mouse
